From US20220073617A1 (Five Prime, published 2022) come the findings set out here.

Usually Kd stands for the equilibrium constant for the complex coming apart. As a reminder, the koff is a measure of how fast the partners let go of each other. One may read the kon as the second-order rate constant of association. A low value points to slow association.

For assay [1], the target named is T1, monovalent hVISTA-ECD (human VISTA extracellular domain with His tail) (human, UniProt Q9H7M9 33-193).
T1 construct: analyte flowed over captured antibody; also called huVISTA-His
Briefly: SPR, pH 7.4.

The target in assay [2] is T2, cyno VISTA-ECD (cynomolgus VISTA extracellular domain with His tail) (cynomolgus macaque, UniProt Q9H7M9 33-193 (human entry)).
T2 construct: also called cyVISTA-His
T2 chain: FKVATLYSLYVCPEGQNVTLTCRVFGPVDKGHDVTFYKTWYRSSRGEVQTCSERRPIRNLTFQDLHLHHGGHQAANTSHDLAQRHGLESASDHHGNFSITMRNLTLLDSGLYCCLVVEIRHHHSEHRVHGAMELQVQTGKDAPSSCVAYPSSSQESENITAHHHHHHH
Description: SPR, pH 7.4. Background: In SPR one partner is held on a chip, and binding of the other changes the refractive index at the surface.

Assay [3] deals with T1, monovalent hVISTA-ECD (human VISTA …). Briefly: SPR, pH 6.0.
The target in assay [4] is T2, cyno VISTA-ECD (cynomolgus VISTA …). Briefly: SPR, pH 6.0.
In assay [5] the target is T1, monovalent hVISTA-ECD (human VISTA …). Description: SPR, pH 6.0, average. Here is the method:
Binding of several preparations of each of the '029 progeny clones and of the parent '029 antibodies, formatted as IgG1.3 antibodies, to human VISTA at pH 6.0 and 7.4 was measured by Surface plasmon resonance (SPR). SPR analysis was performed to measure koff and KD binding affinity measurements for VISTA Abs at acidic and neutral pHs using a Biacore® T100 instrument (GE Healthcare). Protein A (ThermoFisher Scientific catalog #21181) was diluted to 20 ug/ml in 10 mM sodium acetate pH 4.5 and immobilized onto flow cells of a CM5 biosensor following the manufacturer's amine coupling protocol (GE Healthcare), targeting 2,000 RU immobilization density of Protein A per flow cell. SPR experiments were conducted at 37° C. using PBST (137 mM sodium chloride, 2.7 mM potassium chloride, 10 mM phosphate buffer, 0.05% Tween® 20) running buffer at pH 7.4 and 6.0. Antibodies were diluted to 25 nM in PBST pH 7.4, and were captured across active biosensor flow cells at 5 ul/min for 60 seconds. […] Two 15 second injections of 10 mM glycine pH 1.5 were used to regenerate the Protein A capture surface between assay cycles. Rate constants ka (kₒₙ) and kd (koff) were derived from reference flow cell and 0 nM blank-subtracted sensorgrams, and were fit to a 1:1 binding model in Biacore® T200 Evaluation Software v.2.0. The affinity constant, KD was calculated as the ratio of rate constants koff/kₒₙ for each VISTA antibody. […]

Assay [6] has the same target. Description: SPR, pH 7.4, average. How it is done: (§1) Binding of several preparations of each of the '029 progeny clones and of the parent '029 antibodies, formatted as IgG1.3 antibodies, to human VISTA at pH 6.0 and 7.4 was measured by Surface plasmon resonance (SPR). SPR analysis was performed to measure koff and KD binding affinity measurements for VISTA Abs at acidic and neutral pHs using a Biacore® T100 instrument (GE Healthcare). Protein A (ThermoFisher Scientific catalog #21181) was diluted to 20 ug/ml in 10 mM sodium acetate pH 4.5 and immobilized onto flow cells of a CM5 biosensor following the manufacturer's amine coupling protocol (GE Healthcare), targeting 2,000 RU immobilization density of Protein A per flow cell. SPR experiments were conducted at 37° C. using PBST (137 mM sodium chloride, 2.7 mM potassium chloride, 10 mM phosphate buffer, 0.05% Tween® 20) running buffer at pH 7.4 and 6.0. Antibodies were diluted to 25 nM in PBST pH 7.4, and were captured across active biosensor flow cells at 5 ul/min for 60 seconds. […] Two 15 second injections of 10 mM glycine pH 1.5 were used to regenerate the Protein A capture surface between assay cycles. Rate constants ka (kₒₙ) and kd (koff) were derived from reference flow cell and 0 nM blank-subtracted sensorgrams, and were fit to a 1:1 binding model in Biacore® T200 Evaluation Software v.2.0. The affinity constant, KD was calculated as the ratio of rate constants koff/kₒₙ for each VISTA antibody.
Some of the VISTA.4 mutants described above and new mutants were tested for binding to hVISTA, according to the methods described in Example 9. […] Antibody 41F11_VH_T28P/Y50W/S55E/D95H/L96E/P97E/Y100E; VK_A64G (P1-070976) is the only VISTA.4 derivative that is pH selective.

For assay [7] the target is unchanged. Briefly: SPR, pH 6.0. Here is the method:
as §1
(§2) This initial campaign led to pH-independent VISTA.4 variants with near equivalent koff at pH 6 and pH 7. In order to obtain an antibody that binds to hVISTA with high affinity at pH 6.0 and low affinity at pH 7.0, a new library based on consensus sequence of pH-independent VISTA.4 variants was designed and constructed, with amino acid residues in the loops substituted for charge amino acid residues (see Example 9), and screened via yeast surface display (see Example 9). The library was analyzed as previously described (see Example 9) and selected variants were reformatted as IgG1.3 for further analysis (Tables 26 and 27). SPR analysis was conducted on these variants using the conditions previously described in Example 9.
This is another data set of the same source.

The target is the same in assay [8]. Briefly: SPR, pH 6.0. This is another data set of the same source.
Assay [9] has the same target. Description: SPR, pH 7.4. This is another data set of the same source.
Assay [10] shares this target. Briefly: SPR, pH 7.4. Here is the method:
as §1, §2
This is another data set of the same source.

Assay [11] shares this target. Description: SPR, pH 6.0. Here is the method: as §1
The source holds these as a separate data set.

Assay [12] shares this target. Briefly: SPR, pH 7.4. How it is done: as §1
The source holds these as a separate data set.

Assay [13] has the same target. Description: SPR.
Assay [14] shares this target. Briefly: SPR. How it is done:
as §1
This is another data set of the same source.

Changes are numbered by the printed parent chain. Names and notes keep the numbering of the source. Values joined by “and” are separate entries in the source; they are usually repeats but may differ in a detail not shown here. Identical values can stand only once.

B1: P1-072315 (41F11_VH_T28P/Y50W/S55E/L96E/Y100E VK_A64G) (antibody, V domains shown)
VH: QVQLVESGGGLVKPGGSLRLSCAASGFPFSDYYMSWIRQAPGKGLEWVSWISNSGEPIYYADSVKGRFTISRDNAKNSLYLQMNSLRAEDTAVYYCARDEPGWEFDLWGRGTLVTVSS
VL: EIVLTQSPATLSLSPGERATLSCRASQSVSSYLAWYQQKPGQAPRLLIYDASNRATGIPARFSGSGSGTDFTLTISSLEPEDFAVYYCQQRNNWPRTFGQGTKVEIK
notes: Same variable-region description as P1-065333 under another ID; also called P1-072315-1
Turning to B1, the Kd in assay [1] is 2.5 nM; in assay [2], 1.9 nM; in assay [3], 0.35 nM; in [4], 0.6 nM. In addition, the koff stood at 0.00079 s⁻¹ in [1], 0.00068 s⁻¹ in assay [2], 0.0015 s⁻¹ in assay [3] and 0.0016 s⁻¹ in [4]. In addition, the kon in assay [1] was 320000 M⁻¹ s⁻¹; in assay [2], 350000 M⁻¹ s⁻¹; in assay [3], 4.2e+06 M⁻¹ s⁻¹; in assay [4], 2.7e+06 M⁻¹ s⁻¹.

B2: P1-071801 (P1-070976_E97P) (antibody, human IgG1, kappa, V domains shown)
VH: B1 VH with D99H
VL: EIVLTQSPATLSLSPGERATLSCRASQSVSSYLAWYQQKPGQAPRLLIYDASNRATGIPARFSGSGSGTDFTLTISSLEPEDFAVYYCQQRNNWPRTFGQGTKVEIKR
notes: IgG1.3
For the molecule B2, in assay [5], binding was characterised by a dissociation constant (Kd) of 3.5 nM, the koff was 0.0016 s⁻¹ and the kon stood at 460000 M⁻¹ s⁻¹. Moreover, in [6], the Kd was determined as 21 nM, the koff amounted to 0.00061 s⁻¹ and the kon was 29000 M⁻¹ s⁻¹.

B3: P1-070976 (41F11_VH_T28P/Y50W/S55E/D95H/L96E/P97E/Y100E; Vk_A64G) (antibody, human IgG1, kappa, V domains shown)
VH: B1 VH with D99H, P101E
VL: B2 VL
notes: IgG1.3; also called P1-070976-7; acidic pH selective VISTA.4 progeny
Regarding B3, the Kd in assay [5] is 23 nM; in assay [7], 15 nM; in assay [1] it was 2300 nM; in assay [2] it was 5900 nM; in [3] it was 13 nM; in assay [4], 24 nM. The koff in assay [5] was 0.0026 s⁻¹; in assay [7], 0.0028 s⁻¹; in assay [1] it was 0.14 s⁻¹; in [2], 0.026 s⁻¹; in assay [3] it was 0.0028 s⁻¹; in assay [4], 0.0038 s⁻¹. The kon in assay [5] was 110000 M⁻¹ s⁻¹; in [7], 190000 M⁻¹ s⁻¹; in assay [1] it was 61000 M⁻¹ s⁻¹; in assay [2] it was 4400 M⁻¹ s⁻¹; in [3] it was 230000 M⁻¹ s⁻¹; in [4] it was 160000 M⁻¹ s⁻¹.

B4: P1-071799 (P1-070976_H95D) (antibody, human IgG1, kappa, V domains shown)
VH: B1 VH with P101E
VL: B2 VL
notes: IgG1.3
In [5], B4 gave a Kd of 15 nM, a koff of 0.027 s⁻¹ and a kon of 1.7e+06 M⁻¹ s⁻¹.

B5: VISTA.4 A64G (41F11 Vk:A64G) (antibody, human IgG1, kappa, V domains shown)
VH: B1 VH with P28T, W50Y, E56S, E100L, E104Y
VL: B2 VL
notes: IgG1.3; also called P1-061520; P1-061520-10
B5: the Kd in assay [5] was 40 nM; in assay [8], 17.4 nM and 16.6 nM; in [7], 38 nM; in assay [6], 4 nM; in assay [9], 4.48 nM and 4.19 nM; in [10], 1.7 nM. For the same molecule, the koff was 0.033 s⁻¹ in assay [5]; 0.0403 s⁻¹ and 0.0395 s⁻¹ in [8]; 0.086 s⁻¹ in assay [7]; 0.00091 s⁻¹ in assay [6]; 0.00103 s⁻¹ and 0.00105 s⁻¹ in assay [9]; 0.00093 s⁻¹ in assay [10]. The kon in assay [5] is 830000 M⁻¹ s⁻¹; in assay [8], 2.31e+06 M⁻¹ s⁻¹ and 2.37e+06 M⁻¹ s⁻¹; in assay [7] it was 2.3e+06 M⁻¹ s⁻¹; in assay [6], 230000 M⁻¹ s⁻¹; in [9], 231000 M⁻¹ s⁻¹ and 250000 M⁻¹ s⁻¹; in assay [10], 550000 M⁻¹ s⁻¹.

B6: P1-065333 (41F11_VH_T28P/Y50W/S55E/L96E/Y100E VK_A64G) (antibody, human IgG1, kappa, V domains shown)
VH: B1 VH
VL: B2 VL
notes: IgG1.3; also called P1-065333-1; VISTA.4 pH-independent progeny
On to B6, for which the Kd in assay [11] is 0.38 nM; in assay [5], 0.56 nM; in assay [8] it was 0.434 nM; in [12], 1.9 nM; in assay [7] it was 0.47 nM; in assay [6], 3.2 nM. The results for the Kd in assay [9] and in assay [10] were 3.17 nM and 2.2 nM, respectively. In addition, the entries for the “kd improvement vs parent” value in assay [11] and in [12] were 81.7 fold and 1 fold, respectively. Moreover, the koff in assay [11] came to 0.0013 s⁻¹; in assay [5] it was 0.0015 s⁻¹; in [8], 0.00142 s⁻¹; in [12], 0.00093 s⁻¹; in assay [7], 0.0018 s⁻¹; in assay [6] it was 0.00078 s⁻¹. Further, the koff in assay [9] stood at 0.000883 s⁻¹; in assay [10], 0.00094 s⁻¹. In addition, the kon was 3.4e+06 M⁻¹ s⁻¹ in [11]; 2.7e+06 M⁻¹ s⁻¹ in assay [5]; 3.28e+06 M⁻¹ s⁻¹ in assay [8]; 480000 M⁻¹ s⁻¹ in [12]; 3.8e+06 M⁻¹ s⁻¹ in assay [7]; 240000 M⁻¹ s⁻¹ in assay [6]. The kon in [9] amounted to 278000 M⁻¹ s⁻¹; in [10], 430000 M⁻¹ s⁻¹. In [13], the “KD ratio (pH 7.4/pH 6.0)” value came to 7.3. Further, the “pH 6.0/7.4 KD” value in assay [14] is 0.2. Further, in assay [14], the “pH 6.0/7.4 kd” value is 1.4.
